The record followed here is PMC12856111.

Among the targets are mFASΔTE G2054F (mouse) (UniProt P19096); mFASΔTE S2014A (mouse) (UniProt P19096); mFASΔTE T2076F (mouse) (UniProt P19096); mFASΔTE Y2027F (mouse) (UniProt P19096).
Holding throughout (experiment): SEC; Superdex 200 Increase 10/300 GL, 4°C; mFAS samples incubated at 37°C for 1 h beforehand to promote dimerization; oligomeric state read from the elution volume
Background: In gel filtration, larger molecules generally elute earlier.

The target of test [1] is mFASΔTE (metazoan fatty acid synthase lacking the TE domain) (mouse) (UniProt P19096).
Test [2] addresses mFASΔTE S2014A/Y2027F (mouse) (UniProt P19096).

In test [1], “mFASΔTE (metazoan fatty acid synthase lacking the TE domain) (from UniProt P19096 1-2504) (enzyme)” gave a stoichiometry N of 2.

Substance “mFASΔTE G2054F (from UniProt P19096 1-2504) (enzyme)” came in with a stoichiometry N with mFASΔTE G2054F (mouse) of 2.

“mFASΔTE S2014A (from UniProt P19096 1-2504) (enzyme)” showed a stoichiometry N in the test with mFASΔTE S2014A (mouse) of 2.

Turning to “mFASΔTE S2014A/Y2027F (from UniProt P19096 1-2504) (enzyme)”, the stoichiometry N in test [2] is 2.

In the test with mFASΔTE T2076F (mouse), “mFASΔTE T2076F (from UniProt P19096 1-2504) (enzyme)” had a stoichiometry N of 2.

In the case of “mFASΔTE Y2027F (from UniProt P19096 1-2504) (enzyme)”, the stoichiometry N in the test with mFASΔTE Y2027F (mouse) was found to be 2.

For orientation: stoichiometry N means a count of units in the complex or per binding partner.
